According to the RNAGym collection of RNA variant scans (doi:10.1073/pnas.2313332121):

B1: TPR t1 (parent)
chain: GACCAAUCUGCCCUCAGAGCUCGAGAACAUCUUCGGAUGCAGAGGAGGCAGGCUUCGGUGGCGCGAUAGCGCCAACGUCCUCAACCUCCAAUGCAUCCCACCACAUGAUGAUGCCUGAAGAGCCUUGGUUUUUUG

Variants of: B1
Assay: polymerase ribozyme fitness, log enrichment relative to wild type (log ratio); higher = more active; in vitro selection for triplet polymerase activity
Summary of the method: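 Both subunits of a heterodimeric triplet polymerase ribozyme were given their own mutant library, built by PCR and transcribed. Each library was annealed with a biotinylated primer, the partner subunit and triplets, incubated frozen at −7 °C, and its extended constructs gel-excised, captured on streptavidin beads and amplified by RT-PCR, all in one round done in triplicate. Fitness is the logarithm of genotype enrichment relative to wild-type enrichment, with replicates averaged by inverse-variance weighting. That logarithm is base 2, and Illumina-sequenced genotypes needed ≥10 input reads and ≥1 read per output.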

Variant | polymerase ribozyme fitness (log ratio)
GACCAAUCUGCCCUCAGAGCUCGAGAACAUCUUCGGAUGCAGAGGAGGCAGGCUUUGGUGGCGCGAUAGCGCCAACCUCCUCAACCUCCAAUGCAUCCCACCACAUGAUGAUGCCUGAAGAGCCUUGGUUUUUUG [C56U G77C] | -0.361
GACCAAUCUGCCCUCAGAGCUCGAGAACAUCUUCGGAUGCAGAGGAGGCAGGCUUUGGUGGCGCGAUAGCGCCAACAUCCUCAACCUCCAAUGCAUCCCACCACAUGAUGAUGCCUGAAGAGCCUUGGUUUUUUG [C56U G77A] | 0.388
GACCAAUCUGCCCUCAGAGCUCGAGAACAUCUUCGGAUGCAGAGGAGGCAGGCUUUGGUGGCGCGAUAGCGCCAACGUCCUCAACCUCCAAUGCAUCCCACCACAUAAUGAUGCCUGAAGAGCCUUGGUUUUUUG [C56U G107A] | -4.63
GACCAAUCUGCCCUCAGAGCUCGAGAACAUCUUCGGAUGCAGAGGAGGCAGGCUUUGGUGGCGCGAUAGCGCCAACGUCCUCAACCUCCGAUGCAUCCCACCAUAUGAUGAUGCCUAUAGAGCCUUGGUUGUUUG [C56U A90G C104U G117A A118U U131G] | -2.92
GACCAAUCUGCCCUCAGAGCUCGAGAACAUCUUCGGAUGCAGAGGAGGCAGGCUUUGGUGGCGCGAUAGCGCAAACGUCCUCAACCUCCAAUGCAUCCCACCACAUGAUGAUGCCUGAAGAGCCUUGGUUUUUUG [C56U C73A] | -0.837
GACCAAUCUGCCCUCAGAGCUCGAGAACAUCUUCGGAUGCAGAGGAGGCAGGCUUUGGUGGCGCGAUAGCGCCAACGUCCUCAACCUCCAAUGCAUCCCACCACAUGAUGGUGCCUGAAGAGCCUUGGUUUUUUG [C56U A111G] | 0.705
GACCAAUCUGCCCUCAGAGCUCGAGAACAUCUUCGGAUGCAGAGGAGGCAGGCUUUGGUGGCGCGAUAGCGCCAACGUCCUCAACCUCCAAUGCAUCCCACCACAUGAUGAUGCCUGAAGAGCAUUGGUUUUUUG [C56U C124A] | 1.7
GACCAAUCUGCCCUCAGAGCUCGAGAACAUCUUCGGAUGCAGAGGAGGCAGGCUUUGGUGGCGCGAUAGCGCAAACGUCCUCAAACUCCAGUGCAUCCCACCACAUGAUGAUGCCUGAAGAGCCUUGGUUUUUUG [C56U C73A C85A A91G] | -5.09
GACCAAUCUGCCCUCAGAGCUCGAGAACAUCUUCGGAUGCAGAGGAGGCAGGCUUUUGUGGCGCGAUAUCGCCAACGUCCUCAACCUCCAAUGCAUCCCACCACAUGAUGAUGUAUGAAGAGCCUUGGUUUUUUG [C56U G57U G69U C114U C115A] | -4.53
GACCAAUCUGCCCUCAGAGCUCGAGAACAUCUUCGGAUGCAGAGGAGGCAGGCUUUGGUGGCGCGAUAGCGACAACGUCCUCAACCUCCAAUGCAUCCCCCCAUAUGAUGAUGCCUGAAGGGCCUUGGUUUUUUG [C56U C72A A100C C104U A121G] | 1.21
GACCAAUCUGCCCUCAGAGCUCGAGAACAUCUUCGGAUGCAGAGGAGGCAGGCUUUGGUGGCGCGAUAGCGCCAACGUCCUCAACCUCCAAUGCAUCCCUCCACAUGAUGAUGCCUGAAGAGCCUUGGAUUUUUG [C56U A100U U129A] | -1.49
GACCAAUCUGCCCUCAGAGCUCGAGAACAUCUUCGGAUGCAGAGGAGGCAGGCUUUGGUGGCGCGAUAGCGCCAACGUCCUCAACCUCCAAUUCAUCCCACCACAUGAUGAUGCCCGAAGAGCCUUGGUUUUUUG [C56U G93U U116C] | -1.7
GACCAAUCUGCCCUCAGAGCUCGAGAACAUCUUCGGAUGCAGAGGAGGCAGGCUUUGGUGGCGCGAUAGCGCCAACGUCCUCAACCUCCAAUGCAUCACACCACAUGAUGAUGCCUGAAUAGCCUUGGUUUUUUG [C56U C98A G120U] | -4.12
GACCAAUCUGCCCUCAGAGCUCGAGAACAUCUUCGGAUGCAGAGGAGGCAGGCUUUGGUGGCGCGAUAGCGUCAACGUCUUCAACCUCCCAUGCAUCCCACCACAUGAUGAUGCCUGAAGAGCCUUGGUUUUUUG [C56U C72U C80U A90C] | -2.11
GACCAAUCUGCCCUCAGAGCUCGAGAACAUCUUCGGAUGCAGAGGAGGCAGGCUUUGGUGGCGCGAUAGCGCCAACGUCCUAAACCUCCAAUGCAUCCCACCACAUGAUGAUGCCUGAAAAGCCUUGAUUUUUUG [C56U C82A G120A G128A] | -0.705
GACCAAUCUGCCCUCAGAGCUCGAGAACAUCUUCGGAUGCAGAGGAGGCAGGCUUUGGUGGCGCGAUAGCGCCAACGUCCUCAACCUCCGAUGCAUCCCACCACAUGAUGAUGCCUGAAGAGCCUUGGUUUUUUG [C56U A90G] | 0.117
GACCAAUCUGCCCUCAGAGCUCGAGAACAUCUUCGGAUGCAGAGGAGGCAGGCUUUGGUGGCGCGAUAGCGCCAACGUCCUCAACCUCCAAUGCCUCCCACCACAUGAUGAUGCCUGCAGAGCAUUGGUUUAUUG [C56U A95C A118C C124A U132A] | -0.917
GACCAAUCUGCCCUCAGAGCUCGAGAACAUCUUCGGAUGCAGAGGAGGCAGGCUUUGGUGGCGCGCUAGCGCCAACGACCUCAACCUCCAAUGCAUCCCACCACAUGAUGAUGCCUGAAGAGCCUUGGUUUUUUG [C56U A66C U78A] | -2.84
GACCAAUCUGCCCUCAGAGCUCGAGAACAUCUUCGGAUGCAGAGGAGGCAGGCUUUGGUGGCGCGAUAUCGCCAACGUCCUCAACCUCCAAUGCAUCCCACCACAUGAUGAUGCCUGAAUAGCCUUGGUUUUUUG [C56U G69U G120U] | -1.89
GACCAAUCUGCCCUCAGAGCUCGAGAACAUCUUCGGAUGCAGAGGAGGCAGGCUUUGGUGGCGCGAUAGCGCCAACGUCCUCAACCUCCAAUGCAUUCCACCACAUGAUGAUGCCUGAAGAGCCUUGGUUUUUUG [C56U C97U] | -0.00643
GACCAAUCUGCCCUCAGAGCUCGAGAACAUCUUCGGAUGCAGAGGAGGCAGGCUUUGGUGGCGCGAUAGCGCCAACGUCCUCAACGUCCAAUGCAUCCCACCAUAUGAUGAUGCCUGAAGAGCCUUGGUUUUUUG [C56U C86G C104U] | -0.849

Variant | polymerase ribozyme fitness (log ratio)
GACCAAUCUGCCCUCAGAGCUCGAGAACAUCUUCGGAUGCAGAGGAGGCAGGCUUUGGUGGCGCGAUAGCGCCAACGUCCUCAACCUCCAAUGCAUCCCACCACAUGAUGAUGCUUGAAGAGCCUAGGUUUUUUG [C56U C115U U126A] | -2.48
GACCAAUCUGCCCUCAGAGCUCGAGAACAUCUUCGGAUGCAGAGGAGGCAGGCUUUGGUGGCGCGAUAGCGCCAACGUCCUCAACCUCCAAUGCAUCCCACCACAUGAUGAUGCCUGAAGUGCCUUGGUUUUUUG [C56U A121U] | 1.6
GACCAAUCUGCCCUCAGAGCUCGAGAACAUCUUCGGAUGCAGAGGAGGCAGGCUUUGGUGGCGCGAUAGCGCCAACGUCCUCAACCUCCAAUGUAUCCCACCACAUGAUGAUGCCUGAAGAGCCUUGGUUUUUUG [C56U C94U] | 0.204
GACCAAUCUGCCCUCAGAGCUCGAGAACAUCUUCGGAUGCAGAGGAGGCAGGCUUUGGUGGCGCGAUAGCGCCCACGUCCUCAACCUCCAGUGCAUCCCACCACAUGAUGAUGCCUGAAGAGCCUUGGUUUUUUG [C56U A74C A91G] | -1.72
GACCAAUCUGCCCUCAGAGCUCGAGAACAUCUUCGGAUGCAGAGGAGGCAGGCUUUGGUGGCGCGAUAGCGCCAACGUCCUCAACGUCCAAUGCAUCCCACCACAUGAUGUUGCCUGAAGAGCCUUGGGUUUUUG [C56U C86G A111U U129G] | -5.47
GACCAAUCUGCCCUCAGAGCUCGAGAACAUCUUCGGAUGCAGAGGAGGCAGGCUUUGGUGUCGCGAUAGCGCCAACGUCCUCAACCUCCAAUGCAUCCCACCACAUGAUGACGCCUGCAGAGCCUUGGUUUUUUG [C56U G61U U112C A118C] | -4.53
GACCAAUCUGCCCUCAGAGCUCGAGAACAUCUUCGGAUGCAGAGGAGGCAGGCUUUGGUGGCGCGAUAGCGCCAACGUCCUCCACCUCCAAUGCAUCCCACCACAAGAUGAUGCCUGUAGAGGCUUGGUUUUUUG [C56U A83C U106A A118U C123G] | 1.63
GACCAAUCUGCCCUCAGAGCUCGAGAACAUCUUCGGAUGCAGAGGAGGCAGGCUUUGGUGGCGCGAUAGCGCCAACGUCCUCAACCUCCAAUGCAUCCCACCACAUGAUGAUGCCUGAAGAGCCUUGGUUUUUUG [C56U] | 0.0734
GACCAAUCUGCCCUCAGAGCUCGAGAACAUCUUCGGAUGCAGAGGAGGCAGGCUUUGGUGGCGCGAUAGCGGCAACGUCCUCAACCUCCAAUGCAUCCCACCACAUGAUGAUGCCUGAAGAGCCUUGGUUUUUUG [C56U C72G] | -0.66
GACCAAUCUGCCCUCAGAGCUCGAGAACAUCUUCGGAUGCAGAGGAGGCAGGCUUUGGUGUCGCGAUAGCGCCAACGUCCUCAACCUCCAAUGCAUCCCACCACAUGAUGAUGCCUGAAGAGCCUUGGUUUUUUG [C56U G61U] | -2.88
GACCAAUCUGCCCUCAGAGCUCGAGAACAUCUUCGGAUGCAGAGGAGGCAGGCUUUGGUGGCGCGAUAGCGCGAACGUCCUCAACCUCCAAUGCAUCCCACCACAUGAUGAUGCCUGAAGAACCUUGGUAUUUUG [C56U C73G G122A U130A] | -2.91
GACCAAUCUGCCCUCAGAGCUCGAGAACAUCUUCGGAUGCAGAGGAGGCAGGCUUUGGUGGCGCGAUAGCGCCAACGUCCUCAACCUCCAUUGCAUCCCACCACAUGAUGAUGCCUGAAGAGCCUUGGUUUUUUG [C56U A91U] | -1.19
GACCAAUCUGCCCUCAGAGCUCGAGAACAUCUUCGGAUGCAGAGGAGGCAGGCUUUGGUGGCGCGAUAUCGCCAACGUACUCAACCUCCAAUGCAUCCCAUCACAUGAUGAUGCCUGAAGAGCCUUGGUUUUUUG [C56U G69U C79A C101U] | -3.71
GACCAAUCUGCCCUCAGAGCUCGAGAACAUCUUCGGAUGCAGAGGAGGCAGGCUUUGGUGGCGCGAUAGCGCCAACGUCCUUAACCUCCAAUGCAUCCCACCACAUGAUGAUGCCUGAAGAGCCUUGGUUUUUUG [C56U C82U] | -0.0659
GACCAAUCUGCCCUCAGAGCUCGAGAACAUCUUCGGAUGCAGAGGAGGCAGGCUUUUGUGGCGCGAUAGAGCCAACGUCCUCAACCUCCAAUGCAUCCCACCACAUGAUGAUGCCUGAAGAGCCUUGGUUUUUUG [C56U G57U C70A] | -2.65
GACCAAUCUGCCCUCAGAGCUCGAGAACAUCUUCGGAUGCAGAGGAGGCAGGCUUUGGUGGCGCGAUAGCGCCAACGUCCUCAACCUCCAAUACAUCCCACCACAUGAUCAUGCCUGAAGAGCCUUGGUUUUUUG [C56U G93A G110C] | -5.11
GACCAAUCUGCCCUCAGAGCUCGAGAACAUCUUCGGAUGCAGAGGAGGCAGGCUUUGGUGGCGCGAUAGCGCCAACGUCCUCAACCUCCAAUGCCUCCCACCACAUGAUGAUGCCUGAAGAGCCUUGCUUUUUUG [C56U A95C G128C] | -2.78
GACCAAUCUGCCCUCAGAGCUCGAGAACAUCUUCGGAUGCAGAGGAGGCAGGCUUUGGUGGCGCGAUAGCGCCAACGUCCUCAACCUCCAAUGCAUCUCACCACAUGAUGAUGCCUGAAGAGCCUUGGUUUUUUG [C56U C98U] | -0.841
GACCAAUCUGCCCUCAGAGCUCGAGAACAUCUUCGGAUGCAGAGGAGGCAGGCUUUGGUGGCCCGAUAGCGCCAACGUCCUCAACCUCCAAUGCAUCCCACCACAUGAUAAUGCCUGAAGAGCCUUGGUUUUUUG [C56U G63C G110A] | -4.56
GACCAAUCUGCCCUCAGAGCUCGAGAACAUCUUCGGAUGCAGAGGAGGCAGGCUUUGGUGGCGCGAUAGCGCCAACGUCCUCAACCUCCAAUGCGUCCCAACACAUGAUGAUGCCUGAAGAGCCUUGGUUUUUUG [C56U A95G C101A] | -1.46
GACCAAUCUGCCCUCAGAGCUCGAGAACAUCUUCGGAUGCAGAGGAGGCAGGCUUUGGUGGCACGAUAGCGCCAACGUCCUCAACCUCCAAUGCAUCCCACCACAUGAUGAUGCCUGAAGAGCCUUGGUUUUUUG [C56U G63A] | -4.43
